The source of these data is US20150148405A1, “Expression Construct for a Lin28-Resistant Let-7 Precursor MicroRNA” (THE JOHNS HOPKINS UNIVERSITY, priority 2012, published 2015).

Assay type in all cases: cell-based, mouse
Experiment [1] deals with miRNA reporter (CXCR4 shRNA). In words: CXCR4 miRNA-reporter luciferase assay. The following applies: BDNF stimulation, Actinomycin-D. The text has this: The following CXCR4 siRNA/miRNA reporter assay constructs (Addgene) were used: siRNA reporter (PCD FLIP, Plasmid 12567), miRNA reporter (PCD FL4X, 12565), control luciferase reporter (PCD FLOX, 12563), and CXCR4 shRNA (pLKO.1 puro CXCR4 siRNA-2, 12272) (Wang et al., 2006). Let-7 luciferase reporters with wild-type or mutated Let-7 miRNA binding sites were gifts from G. Hannon (Liu et al., 2005b). 3′UTR reporters were constructed by inserting 3′UTRs from GluR1, CaMKIIu or KCC2 downstream of luciferase in pGL3-Control vector (Promega). A Lin28-resistant Let-7 pre-miRNA was generated by mutation of the conserved Lin28 “GGAG” recognition motif to “GtAt” in the terminal loop of pLV-hsa-let-7a-1 (Biosettia). […]
44 hours post-transfection, hippocampal cultures were treated with serum-reduced media (0.5% B27) and Actinomycin-D (0.5 ng/mL) as previously described, followed by BDNF stimulation 100 ng/mL for 4 hours. Cell lysates were collected in 1×lysis buffer (reporter lysis buffer, Promega), and luciferase (Promega) and chemiluminescent β-gal (Roche) reporter assays carried out according to manufacturer instructions using a plate-reading luminometer (Perkin Elmer). […] When required, fold change was calculated by dividing normalized stimulated samples by normalized unstimulated samples.

The subject of a further experiment is Lin28a. The experiment in a line: Immunoblotting for Lin28a. The following applies: mature neurons, by 5 min following BDNF exposure. On the procedure:
(§1) Primary cultures of mouse hippocampal neurons (DIV 14 15) were incubated in serum-reduced medium (0.5% B27 supplement) for 2 hours, followed by […] Actinomycin-D for 10-20 min. Bath application of BDNF (100 ng/mL) was for designated periods (5 min-2 hours). The cultures were washed 3 times and harvested on ice with lysis buffer (50 mM Hepes, 150 mM NaCl, 10% Glycerol, 1 mM EDTA, 1% Triton-X-100, 0.2% SDS) plus freshly added protease inhibitor cocktail (Roche) and PMSF. Protein concentration was determined by Bradford Assay. If required, lysates were treated with Lambda Protein Phosphatase according to manufacturer's instructions (New England Biolabs […]). Equal amounts of lysate protein were resolved on SDS-PAGE gels, and electrotransferred to PVDF membrane. […]
A general note: A western blot detects proteins with antibodies after separation by electrophoresis.

Another experiment relates to Let-7a. The experiment in a line: Northern blot of pre- and mature Let-7a. The following applies: BDNF-treated (30 min) neurons. The procedure:
Northern blots were carried out as described (Hwang et al., 2007), using the following LNA probes from Exiqon: Let-7a (5′ […] 3′; SEQ ID NO: 1), pre-Let-7a (5′ GTGGGTGTGACCCTA 3′; SEQ ID NO: 2), miR-17 (5′ […] 3′; SEQ ID NO: 3) and quantified by phosphoimaging.

The next experiment has as its system mature miRNA. In words: miRNA profiling arrays (Taqman Rodent MicroRNA Array A). The following applies: BDNF 30 min, plus Actinomycin-D. On the procedure: Murine hippocampal cultures were preincubated for 10-20 minutes with […] Actinomycin D and either mock- or BDNF- (100 ng/mL) stimulated for 30 minutes before harvesting.
For miRNA arrays, […] of total RNA for each sample was reverse-transcribed with stem-looped Megaplex RT Primers (Applied Biosystems) in a final volume of 7.5 μL according to manufacturer's instructions: preincubation at 4° C. for 5 min; 16° C. for 2 min, 42° C. for 1 min, 50° C. for 1 sec, 40 cycles; 85° C. for 5 min. The entire cDNA RT product (7.5 μk) was subjected to RT-qPCR on an Applied Biosystems 7900HT Fast Real-Time PCR system using Taqman Rodent MicroRNA Array A. Data were compiled in SDS RQ Manager 1.2.1 and analyzed in Data Assist 2.0 (Applied Biosystems); RQ was calculated as 2^−LCtBDNF/2^LCtmock where LCt=(cycle threshold for miRNA of interest)−(cycle threshold for reference control) (Schmittgen and Livak, 2008). Thresholds and cycle threshold (Ct) values were determined using default settings and the maximum allowable Ct value was set at 35.0 inclusive. Data were normalized by arithmetic mean using MammU6 (4395470) and snoRNA202 (4380914) reference RNAs as controls. miRNA array data are reposited with the NCBI Gene Expression Omnibus (GEO). […]
For orientation: Real-time PCR tracks product formation cycle by cycle.

A further experiment concerns phospho-ERK. The experiment in a line: Immunoblotting for phospho-ERK. The following applies: BDNF-stimulated neurons, Actinomycin-D. The procedure: as §1

B1: BDNF: brain-derived neurotrophic factor, a neurotrophin used to stimulate hippocampal neurons (protein, UniProt P23560 19-247, looked up)
Neurotrophic factor BDNF …: APMKEANIRGQGGLAYPGVRTHGTLESVNGPKAGSRGLTSLADTFEHVIEELLDEDQKVRPNEENNKDADLYTSRVMLSSQVPLEPPLLFLLEEYKNYLDAANMSMRVRRHSDPARRGELSVCDSISEWVTAADKKTAVDMSGGTVTVLEKVPVSKGQLKQYFYETKCNPMGYTKEGCRGIDKRHWNSQCRTTQSYVRALTMDSKKRIGWRFIRIDTSCVCTLTIKRGR
For the molecule B1, the “miRNA-mediated suppression of miRNA reporter by shCXCR4” value in experiment [1] is recorded as “greatly enhanced miRNA-mediated suppression”. The Lin28a protein result in the experiment with Lin28a is “robust and rapid transcription-independent increase in Lin28a”. For the same molecule, the “pre-Let7 and mature Let-7 miRNA levels” value in the experiment on Let-7a is “significant decreases”. In the experiment with mature miRNA, the “detectable miRNAs with significantly altered levels decreased to <50%” value is 10.6% and the “detectable miRNAs with significantly altered levels increased more than 2-fold” value is 89.4%. The phospho-ERK induction entry with phospho-ERK is given as “rapidly induced phospho-ERK”.
